Results as given in patent US20240353401, “Compositions and methods for detecting SARS-CoV-2 spike protein” (UNICORNFISH PTY LTD AS TRUSTEE FOR RCX UNIT TRUST, published 2024).

B1: DNA aptamer 2 (ssDNA)
DNA: ATCCAGAGTGACGCAGCATCGAGTGGTGGGCTGGTCGGGTTTGGATTCCCTTAGATGCTGGACACGGTGGCTTAGT
B2: DNA aptamer 7 (ssDNA)
DNA: CAGCACCGACCTTGTGCTTTGGGAGTGCTGGTCCAAGGGCGTTAATGGACA
B3: DNA aptamer 3 (ssDNA)
DNA: ATCCAGAGTGACGCAGCACTGCGTAGGCGCGGCCAATGTGTAGGATTGCTCAGGTCTGCTGGACACGGTGGCTTAGT
B4: DNA aptamer 4 (ssDNA)
DNA: ATCCAGAGTGACGCAGCATTTCATCGGGTCCAAAAGGGGCTGCTCGGGATTGCGGATATGGACACGGTGGCTTAGT
B5: DNA aptamer 5 (ssDNA)
DNA: ATCCAGAGTGACGCAGCAGGACTGCTTAGGATTGCGAAGCTGAGGAGCTCCCCCGCCTTGGACACGGTGGCTTAGT
B6: DNA aptamer 6 (ssDNA)
DNA: ATCCAGAGTGACGCAGCAGTAGGGGGATTGGCTCCAGGGCCTGGCTGACGGTTGCACGTGGACACGGTGGCTTAGT
B7: DNA aptamer 8 (ssDNA)
DNA: ATCCAGAGTGACGCAGCATTTCATCGGGTCCAAAAGGGGCTGCTCGGGATTGCGGATATGGACACGT

How the values were obtained:
SARS-CoV-2 spike protein = SARS-CoV-2 spike protein (SARS-CoV-2, UniProt P0DTC2 P0DTC2:14-1213); test: cell-based or functional assay
HCoV-229E spike protein = HCoV-229E spike protein (Human coronavirus 229E, UniProt P15423 P15423:16-1115)
HCoV-229E spike protein, sequence (P15423 16-1115, one chain of several): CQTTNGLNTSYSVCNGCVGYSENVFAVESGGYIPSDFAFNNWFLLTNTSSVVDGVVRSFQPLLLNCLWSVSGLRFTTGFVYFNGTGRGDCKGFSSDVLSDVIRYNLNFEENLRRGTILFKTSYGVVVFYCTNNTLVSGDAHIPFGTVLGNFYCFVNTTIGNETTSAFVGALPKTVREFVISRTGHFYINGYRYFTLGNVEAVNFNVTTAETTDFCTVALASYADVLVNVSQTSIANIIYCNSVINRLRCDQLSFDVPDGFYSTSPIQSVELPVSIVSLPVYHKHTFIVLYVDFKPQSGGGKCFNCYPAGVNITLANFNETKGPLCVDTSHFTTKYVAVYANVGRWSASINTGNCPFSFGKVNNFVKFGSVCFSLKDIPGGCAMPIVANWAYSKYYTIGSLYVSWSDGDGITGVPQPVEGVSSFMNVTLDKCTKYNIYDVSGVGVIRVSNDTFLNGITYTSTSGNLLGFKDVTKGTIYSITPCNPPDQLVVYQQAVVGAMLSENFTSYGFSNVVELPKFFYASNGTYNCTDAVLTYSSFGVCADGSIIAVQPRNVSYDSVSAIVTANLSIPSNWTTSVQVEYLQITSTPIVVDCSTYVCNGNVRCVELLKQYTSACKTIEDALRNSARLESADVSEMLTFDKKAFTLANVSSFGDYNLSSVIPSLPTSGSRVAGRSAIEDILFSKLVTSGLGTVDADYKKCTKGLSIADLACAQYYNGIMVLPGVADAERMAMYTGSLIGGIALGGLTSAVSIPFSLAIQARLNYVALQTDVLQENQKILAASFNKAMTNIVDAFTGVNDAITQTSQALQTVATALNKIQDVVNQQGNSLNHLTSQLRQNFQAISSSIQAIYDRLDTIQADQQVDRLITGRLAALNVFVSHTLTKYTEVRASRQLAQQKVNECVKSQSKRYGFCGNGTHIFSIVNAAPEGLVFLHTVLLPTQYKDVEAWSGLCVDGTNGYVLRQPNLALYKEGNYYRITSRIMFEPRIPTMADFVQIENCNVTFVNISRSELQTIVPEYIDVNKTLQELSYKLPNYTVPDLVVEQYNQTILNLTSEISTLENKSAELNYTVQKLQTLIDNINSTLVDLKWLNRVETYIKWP

HCoV-NL63 spike protein = HCoV-NL63 spike protein (Human coronavirus NL63, UniProt Q6Q1S2 Q6Q1S2:19-1296)
HCoV-NL63 spike protein, sequence (Q6Q1S2 19-1296, one chain of several): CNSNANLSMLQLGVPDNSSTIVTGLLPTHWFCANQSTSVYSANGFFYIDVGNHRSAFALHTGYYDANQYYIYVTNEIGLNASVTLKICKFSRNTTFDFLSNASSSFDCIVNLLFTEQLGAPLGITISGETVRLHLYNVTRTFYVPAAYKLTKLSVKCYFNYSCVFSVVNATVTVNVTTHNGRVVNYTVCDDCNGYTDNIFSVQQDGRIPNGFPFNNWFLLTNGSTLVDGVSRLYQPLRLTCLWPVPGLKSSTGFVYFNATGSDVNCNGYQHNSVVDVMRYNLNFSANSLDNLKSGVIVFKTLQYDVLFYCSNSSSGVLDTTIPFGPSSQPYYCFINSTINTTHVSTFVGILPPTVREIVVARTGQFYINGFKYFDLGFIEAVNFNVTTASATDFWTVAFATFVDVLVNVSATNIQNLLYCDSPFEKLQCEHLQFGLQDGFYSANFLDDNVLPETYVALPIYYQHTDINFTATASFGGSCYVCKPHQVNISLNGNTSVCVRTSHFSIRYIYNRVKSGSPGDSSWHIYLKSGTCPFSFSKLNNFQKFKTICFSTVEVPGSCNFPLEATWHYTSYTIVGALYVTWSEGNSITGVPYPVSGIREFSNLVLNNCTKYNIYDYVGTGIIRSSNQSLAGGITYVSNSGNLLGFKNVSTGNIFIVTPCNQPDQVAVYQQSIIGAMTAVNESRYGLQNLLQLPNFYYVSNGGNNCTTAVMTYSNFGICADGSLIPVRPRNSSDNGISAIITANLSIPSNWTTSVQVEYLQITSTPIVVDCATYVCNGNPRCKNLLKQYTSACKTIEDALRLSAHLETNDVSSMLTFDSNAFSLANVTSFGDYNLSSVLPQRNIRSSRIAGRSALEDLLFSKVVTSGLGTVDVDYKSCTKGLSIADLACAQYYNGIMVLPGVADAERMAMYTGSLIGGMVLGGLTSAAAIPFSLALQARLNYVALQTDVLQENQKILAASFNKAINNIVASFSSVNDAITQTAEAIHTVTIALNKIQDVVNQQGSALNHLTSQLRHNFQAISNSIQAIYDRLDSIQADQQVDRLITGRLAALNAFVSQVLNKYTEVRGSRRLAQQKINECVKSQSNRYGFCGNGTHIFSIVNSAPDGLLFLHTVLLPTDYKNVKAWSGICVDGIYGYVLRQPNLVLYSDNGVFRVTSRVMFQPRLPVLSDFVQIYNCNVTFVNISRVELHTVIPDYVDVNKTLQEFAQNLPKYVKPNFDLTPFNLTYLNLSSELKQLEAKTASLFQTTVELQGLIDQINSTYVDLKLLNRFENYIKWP

Binder | activity (SARS-CoV-2 spike protein) [nM] | binding result (HCoV-229E spike protein) | binding result (HCoV-NL63 spike protein)
B1 | 8 |  | 
B2 |  | no binding | no binding
B3 | 10 |  | 
B4 | 9 |  | 
B5 | 9.7 |  | 
B6 | 7.8 |  | 
B7 | 8.9 |  | 
